The values that follow come from patent publication US20240158497A1 (published 2024).

Experiment [1] deals with T1, human GP130 extracellular domain expressed with a C-terminal myc-myc-hexahistidine tag (human, UniProt P40189 23-619).
T1 construct: monomeric; also called hGP130-mmH; hGP130-MMH
In words: SPR 25C, mAb captured, hGP130-MMH injected. The method, then:
(§1) Equilibrium dissociation constant (KD) for different GP130 reagents binding to purified anti-GP130 monoclonal antibodies were determined using a real-time surface plasmon resonance based Biacore 4000 biosensor. All binding studies were performed in 10 mM HEPES, 150 mM NaCl, 3 mM EDTA, and 0.05% v/v Surfactant Tween-20, pH 7.4 (HBS-ET) running buffer at 25° C. and 37° C. The Biacore sensor surface was first derivatized by amine coupling with a monoclonal mouse anti-human Fc antibody (GE, #BR-1008-39) to capture anti-GP130 monoclonal antibodies. […] Reagents tagged with “mmH” are monomeric, whereas reagents tagged with “mFc” are dimeric. Thus, for example, “hGP130-mmH” is also referred to as “monomeric human GP130,” and “hGP130-mFc” is also referred to as “dimeric human GP130.”
(§2) The association rate (k a) and dissociation rate (kd) were determined by fitting the real-time binding sensorgrams to a 1:1 binding model with mass transport limitation using Scrubber 2.0c curve-fitting software. Binding dissociation equilibrium constant (KD) and dissociative half-life (t ½) were calculated from the kinetic rates as: […]

Experiment [2] deals with T2, mouse GP130 extracellular domain expressed with a C-terminal myc-myc-hexahistidine tag (mouse, UniProt Q00560 23-617).
T2 construct: monomeric; also called mGP130-mmH; mGP130-MMH
The experiment in a line: SPR. As for the experimental part:
as §1, §2

For experiment [3], the target named is T3, human GP130 delta D1-D3 expressed with a C-terminal myc-myc hexahistidine tag (human, UniProt P40189 329-619).
T3 construct: CHO supernatant, captured on anti-myc microspheres; also called human GP130 delta D1-D3-MMH
The experiment in a line: Luminex, myc-captured antigen. The method, then:
(§3) Aliquots of microspheres with immobilized anti-myc monoclonal antibodies, prepared as described above, were added individually to 1 mL of the each of these protein supernatants and to 500 uL of purified GP130 protein. The microspheres were gently mixed, incubated for two hours at 25° C., washed twice with 1 mL of DBPS, centrifuged to remove the supernatant and finally resuspended in 1 mL of DPBS buffer. Forty eight μL of anti-myc IgG coupled microspheres from individual reactions with full length human GP130 and with each of the human GP130 domain proteins were withdrawn and mixed together in 3.6 mL of PBS+20 mg/mL BSA+0.05% sodium azide (blocking buffer).
(§4) From this mixed pool, 75 μL of microspheres were plated per well on a 96 well filter plate (Millipore, Cat. No: MSBVN1250) and mixed with 25 μL of individual anti-human GP130 monoclonal antibodies (0.5 or 5 μg/mL), incubated for two hours at 25° C. and then washed twice with 200 μL of DPBS with 0.05% Tween 20 (washing buffer). To detect and quantify the amounts of bound anti-GP130 antibody levels to individual microspheres, either 100 μL of 2.5 μg/mL R-Phycoerythrin conjugated goat F(ab′)2 anti-human kappa (Southern Biotech, Cat #2063-09) in blocking buffer, was added and incubated for 30 minutes at 25° C. After 30 minutes, the samples were washed twice with 200 μL of washing buffer and resuspended in 150 μL of wash buffer. The Median Fluorescence intensity (MFI) of the microspheres was measured in a Luminex Analyzer.

In experiment [4] the target is T4, human GP130 delta D1 expressed with a C-terminal myc-myc hexahistidine tag (human, UniProt P40189 124-619).
T4 construct: CHO supernatant, captured on anti-myc microspheres; also called human GP130 delta D1-MMH
In words: Luminex, myc-captured antigen. The method, then:
as §3, §4

T3 sequence (P40189 other isoform, or with tags, fused parts or gaps mutant limits assumed): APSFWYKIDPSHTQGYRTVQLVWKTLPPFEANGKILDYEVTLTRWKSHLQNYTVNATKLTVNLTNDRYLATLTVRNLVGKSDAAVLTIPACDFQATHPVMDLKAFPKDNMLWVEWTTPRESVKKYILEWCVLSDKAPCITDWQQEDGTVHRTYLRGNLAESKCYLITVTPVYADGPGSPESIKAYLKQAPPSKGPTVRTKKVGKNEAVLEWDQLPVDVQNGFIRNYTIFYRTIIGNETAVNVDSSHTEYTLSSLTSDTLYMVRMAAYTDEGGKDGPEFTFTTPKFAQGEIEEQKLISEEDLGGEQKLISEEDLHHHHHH
T2 sequence (Q00560 other isoform, or with tags, fused parts or gaps): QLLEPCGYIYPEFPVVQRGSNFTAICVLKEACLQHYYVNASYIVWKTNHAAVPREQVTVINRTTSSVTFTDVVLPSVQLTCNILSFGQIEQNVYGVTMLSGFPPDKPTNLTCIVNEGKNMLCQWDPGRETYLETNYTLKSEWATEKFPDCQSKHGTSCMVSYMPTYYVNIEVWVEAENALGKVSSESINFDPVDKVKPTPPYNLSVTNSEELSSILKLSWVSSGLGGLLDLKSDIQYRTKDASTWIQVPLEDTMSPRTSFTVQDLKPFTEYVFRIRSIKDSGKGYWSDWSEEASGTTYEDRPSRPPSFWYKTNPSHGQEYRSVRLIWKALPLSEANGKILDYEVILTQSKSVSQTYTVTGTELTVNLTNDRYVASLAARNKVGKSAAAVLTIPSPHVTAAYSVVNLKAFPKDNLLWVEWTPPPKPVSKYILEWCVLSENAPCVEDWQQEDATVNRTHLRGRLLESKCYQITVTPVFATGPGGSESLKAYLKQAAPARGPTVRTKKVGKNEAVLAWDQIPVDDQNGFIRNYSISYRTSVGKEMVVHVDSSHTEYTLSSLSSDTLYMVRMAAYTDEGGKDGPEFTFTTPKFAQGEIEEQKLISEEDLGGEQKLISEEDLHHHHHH
T4 sequence (P40189 other isoform, or with tags, fused parts or gaps mutant limits assumed): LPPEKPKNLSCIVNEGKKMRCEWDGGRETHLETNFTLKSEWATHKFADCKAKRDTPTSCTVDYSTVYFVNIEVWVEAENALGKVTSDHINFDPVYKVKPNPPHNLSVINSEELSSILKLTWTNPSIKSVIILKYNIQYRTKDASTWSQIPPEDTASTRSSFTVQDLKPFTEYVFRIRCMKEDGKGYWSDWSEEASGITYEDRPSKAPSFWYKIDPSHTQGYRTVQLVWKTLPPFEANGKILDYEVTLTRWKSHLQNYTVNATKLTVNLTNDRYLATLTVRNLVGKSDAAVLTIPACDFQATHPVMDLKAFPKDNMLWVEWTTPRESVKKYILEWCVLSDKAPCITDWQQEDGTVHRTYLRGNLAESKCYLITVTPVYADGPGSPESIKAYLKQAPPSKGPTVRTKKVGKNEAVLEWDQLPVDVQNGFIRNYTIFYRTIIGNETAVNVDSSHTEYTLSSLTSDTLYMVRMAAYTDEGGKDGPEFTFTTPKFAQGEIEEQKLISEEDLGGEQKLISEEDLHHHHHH

B1: MAb16666 (antibody, V domains shown)
VH: EVQLVESGGGLVQSGGSLRLSCAASGFTFSRYEMNWVRQAPGKGLEWVAYISNTGTTRDYSDSVKGRFTISRDNAKNSLYLQMSSLRVEDTAVYYCVREKFSGTSDWFDPWGQGTLVTVSS
VL: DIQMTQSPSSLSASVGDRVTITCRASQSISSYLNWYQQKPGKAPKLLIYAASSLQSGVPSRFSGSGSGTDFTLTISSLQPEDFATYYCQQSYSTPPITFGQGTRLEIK
As for B1, in experiment [1], the “100 nM Ag Bound (RU)” value was 138 RU, the Kd worked out at 14.4 nM, the koff worked out at 0.00456 s⁻¹ and the kon turned out to be 317000 M⁻¹ s⁻¹. In experiment [1], this molecule yielded a t½ of 3 min. The binding result in experiment [2] was “no binding (tested: 100 nM)”. For the same molecule, in experiment [3], the binding result is “no binding (tested: 0.5 or 5 µg/mL)”.

B2: MAb16614 (antibody, V domains shown)
VH: QVQLVESGGGVVQPGGSLRLSCAASGFTFSTYDIHWVRQAPGKGLEWVAVISFDGSNRNYGDSVKGRFTISRDNSDNTLFLEMNNLRFEDTAVYYCAKEGYGVDFQHWGQGTLVTVSS
VL: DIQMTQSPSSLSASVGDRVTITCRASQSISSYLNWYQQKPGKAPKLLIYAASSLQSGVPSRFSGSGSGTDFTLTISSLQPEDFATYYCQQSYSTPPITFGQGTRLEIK
Consider B2, for which, in experiment [1], the “100 nM Ag Bound (RU)” value was 18 RU; the affinity, expressed as Kd, was 183 nM; the koff came to 0.0101 s⁻¹; the kon came out at 55200 M⁻¹ s⁻¹. In experiment [1], this molecule displayed a t½ of 1.1 min. For the same molecule, in experiment [2], the binding result is on record as “no binding (tested: 100 nM)”. Also, the binding result in experiment [3] is “no binding (tested: 0.5 or 5 µg/mL)”.

B3: MAb16618 (antibody, V domains shown)
VH: QVQLQESGPGLVKPSETLSLTCTVSGGSISNYYWTWIRQPPGKGLEWIGHISNSGTTNYNPSLKSRVTISVDTSKNQFSLKLTSVTAADTAVYYCARLPLGIAAVDTDYYYYFGMDVWGQGTTVTVSS
VL: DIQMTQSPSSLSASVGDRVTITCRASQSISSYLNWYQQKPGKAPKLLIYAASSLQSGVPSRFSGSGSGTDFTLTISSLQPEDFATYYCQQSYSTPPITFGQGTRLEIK
Turning to B3, in experiment [1], the “100 nM Ag Bound (RU)” value was 52 RU, the Kd amounted to 120 nM, the koff came out at 0.0425 s⁻¹ and the association rate constant (kon) is 354000 M⁻¹ s⁻¹. Besides, the t½ in experiment [1] turned out to be 0.3 min. Besides, in experiment [2], the binding result is “no binding (tested: 100 nM)”. In addition, in experiment [3], the binding result is listed as “no binding (tested: 0.5 or 5 µg/mL)”.

B4: MAb16682 (antibody, V domains shown)
VH: EVQLVESGGGLVQPGGSLRLSCAASGFTFSTYWMNWVRQAPGKGLEWVANIKEDGSEKYYVDSVKGRFTISRDNAKNSLYLQMNSLRAEDTAVYYCAREGFGVVTYIWGQGTMVTVSS
VL: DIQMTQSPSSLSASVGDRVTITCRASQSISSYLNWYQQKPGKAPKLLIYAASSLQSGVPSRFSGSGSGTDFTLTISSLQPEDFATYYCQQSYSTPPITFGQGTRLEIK
On to B4, for which, in experiment [1], the “100 nM Ag Bound (RU)” value worked out at 21 RU, the dissociation constant Kd was 136 nM, the off-rate (koff) is 0.0164 s⁻¹ and the kon worked out at 121000 M⁻¹ s⁻¹. The molecule also yielded a t½ in experiment [1] of 0.7 min. Further, the binding result in experiment [2] is “no binding (tested: 100 nM)”. The binding result in experiment [3] is given as “no binding (tested: 0.5 or 5 µg/mL)”.

B5: MAb16637 (antibody, V domains shown)
VH: QVQLVQSGAEVKKPGASVKVSCKASGYTFTSLGISWVRQAPGQGLEWMGWISAYSGNRDYAQKFQGRVTMTTDTSTSTAYMELRSLRSDDTAVYYCARSLRFDYWGQGTLVTVSS
VL: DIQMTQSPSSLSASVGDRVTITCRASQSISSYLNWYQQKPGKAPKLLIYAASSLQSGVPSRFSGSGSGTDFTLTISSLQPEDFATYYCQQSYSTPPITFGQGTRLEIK
Consider B5, for which, in experiment [1], the “100 nM Ag Bound (RU)” value was 91 RU, the Kd was 15.5 nM, the koff amounted to 0.0011 s⁻¹ and the association rate constant (kon) is 71100 M⁻¹ s⁻¹. In addition, the t½ in experiment [1] came out at 10 min. Moreover, the binding result in experiment [2] is reported as “no binding (tested: 100 nM)”. Besides, the binding result in experiment [3] was “no binding (tested: 0.5 or 5 µg/mL)”. In addition, in experiment [4], the binding result is on record as “no binding (tested: 0.5 or 5 µg/mL)”.

B6: MAb16673 (antibody, V domains shown)
VH: EVQLVQSGAEVKKPGESLKISCKGSGYSFTSYWIDWVRQMPGKGLEWMGIIYPDDSDTRYSPSFQGQVTMSVDKSISTAYLQWSSLKASDTAIYYCARHERGIVEAGTDYYYYYGMDVWGQGTTVTVSS
VL: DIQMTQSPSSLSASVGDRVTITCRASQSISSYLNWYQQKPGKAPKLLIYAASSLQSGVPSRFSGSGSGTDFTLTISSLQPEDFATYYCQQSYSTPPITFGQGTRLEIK
Take B6: in experiment [1], the “100 nM Ag Bound (RU)” value turned out to be 58 RU, the Kd worked out at 65.5 nM, the koff was 0.0141 s⁻¹ and the kon is 215000 M⁻¹ s⁻¹. Besides, the t½ in experiment [1] turned out to be 0.8 min. The binding result in experiment [2] is given as “no binding (tested: 100 nM)”. In addition, the binding result in experiment [3] is “no binding (tested: 0.5 or 5 µg/mL)”.

B7: MAb16656 (antibody, V domains shown)
VH: EVQLVESGGGLVQPGRSLRLSCAASGFTLDDFAMHWVRQAPGKGLEWVSGISWNSGNIGYADSVKGRFTISRDNARNSLYLQMNSLRAEDTALYYCTSGYYLYYAMDVWGQGTTVTVSS
VL: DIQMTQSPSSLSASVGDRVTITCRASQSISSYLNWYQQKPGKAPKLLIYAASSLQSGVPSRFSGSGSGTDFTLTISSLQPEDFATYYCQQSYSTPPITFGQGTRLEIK
Regarding B7, in experiment [1], the “100 nM Ag Bound (RU)” value is 44 RU, the dissociation constant (Kd) came to 23 nM, the off-rate (koff) is 0.000825 s⁻¹ and the kon came out at 35900 M⁻¹ s⁻¹. In experiment [1], the t½ turned out to be 14 min. In addition, the binding result in experiment [2] was “no binding (tested: 100 nM)”. Moreover, the binding result in experiment [3] is “no binding (tested: 0.5 or 5 µg/mL)”. In addition, the binding result in experiment [4] is recorded as “no binding (tested: 0.5 or 5 µg/mL)”.

B8: MAb16662 (antibody, V domains shown)
VH: EVQLVESGGGLVQPGGSLRLSCTASGFTFSNYAIFWVRQAPGKGLEYVSGISNNGVTKYYADSVRDRFTISRDNSRNTVSIQMDSLRTEDMAVYYCARENWGSDDGFDIWGQGTMVTVSS
VL: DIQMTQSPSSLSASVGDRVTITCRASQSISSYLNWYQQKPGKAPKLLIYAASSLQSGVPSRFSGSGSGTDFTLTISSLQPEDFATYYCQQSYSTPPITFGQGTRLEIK
Take B8: in experiment [1], the “100 nM Ag Bound (RU)” value is 22 RU, the Kd turned out to be 123 nM, the koff stood at 0.029 s⁻¹ and the kon worked out at 235000 M⁻¹ s⁻¹. The molecule further had a t½ in experiment [1] of 0.4 min. The binding result in experiment [2] is listed as “no binding (tested: 100 nM)”. Also, the binding result in experiment [3] was “no binding (tested: 0.5 or 5 µg/mL)”.

B9: MAb16636 (antibody, V domains shown)
VH: QLQLQESGPGLVKPSETLSLICTVSGGSISSNNYYWGWIRQPPGKGLEWIGNLYGSGSTYYNPSLKSRVTISVDTSKNQFSLKLSFVTAADTAVYHCARWDTNGGAFDIWGQGTMVTVSS
VL: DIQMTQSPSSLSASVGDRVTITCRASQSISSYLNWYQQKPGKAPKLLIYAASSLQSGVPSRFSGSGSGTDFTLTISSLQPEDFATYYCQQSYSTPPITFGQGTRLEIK
Turning to B9, in experiment [1], the “100 nM Ag Bound (RU)” value stood at 37 RU, binding was characterised by a dissociation constant (Kd) of 36.8 nM, the koff is 0.000993 s⁻¹ and the association rate constant (kon) was determined as 27000 M⁻¹ s⁻¹. The molecule also gave a t½ in experiment [1] of 12 min. For the same molecule, the binding result in experiment [2] was “no binding (tested: 100 nM)”. Further, the binding result in experiment [3] is “no binding (tested: 0.5 or 5 µg/mL)”.

B10: MAb16623 (antibody, V domains shown)
VH: EVQLVESGGGLVQPGGSLRLSCAASGLTFSSYEMNWVRQAPGKGLEWVSHISSAGSTKYYADSVKGRFTISRDNAKNSLFLQMNSLRAEDTAIYYCAGYNYAYYYFGVDVWGQGTTVTVSS
VL: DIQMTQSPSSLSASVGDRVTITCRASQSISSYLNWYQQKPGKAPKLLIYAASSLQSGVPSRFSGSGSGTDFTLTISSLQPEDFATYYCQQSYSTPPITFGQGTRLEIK
In the case of B10, in experiment [1], the “100 nM Ag Bound (RU)” value amounted to 77 RU; the affinity, expressed as Kd, was 21 nM; the koff came out at 0.00377 s⁻¹; the on-rate (kon) amounted to 180000 M⁻¹ s⁻¹. The t½ in experiment [1] amounted to 3 min. In addition, in experiment [2], the binding result is recorded as “no binding (tested: 100 nM)”.

B11: MAb16622 (antibody, V domains shown)
VH: EVQLVESGGGVVRPGGSLRLSCTASGFTFDDYGMSWVRQAPGKGLEWVSGINWNGGRTEYADAVKGRFIISRDNAKNSLYLQMNSLRAEDTALYFCARTELRWDYWGQGTLVTVSS
VL: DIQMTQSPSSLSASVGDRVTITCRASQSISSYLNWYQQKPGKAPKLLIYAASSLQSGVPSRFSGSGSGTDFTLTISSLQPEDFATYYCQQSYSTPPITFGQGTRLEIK
Consider B11, for which, in experiment [1], the “100 nM Ag Bound (RU)” value was 36 RU, the dissociation constant Kd was determined as 203 nM, the koff was found to be 0.0243 s⁻¹ and the kon was determined as 120000 M⁻¹ s⁻¹. The molecule also displayed a t½ in experiment [1] of 0.5 min. In experiment [2], the binding result was “no binding (tested: 100 nM)”. Further, the binding result in experiment [3] is given as “no binding (tested: 0.5 or 5 µg/mL)”.

B12: MAb16669 (antibody, V domains shown)
VH: EVQLVESGGGLVQPGGSLRLSCAASGFTFSSYAMNWVRQAPGKGLEWVSAISGSGDSTYYTDSVKGRFTISRDNSKNTLYLQMNTLRAEDTAVYYCAKEEIVMLVGATPGWFDPWGQGTLVTVSS
VL: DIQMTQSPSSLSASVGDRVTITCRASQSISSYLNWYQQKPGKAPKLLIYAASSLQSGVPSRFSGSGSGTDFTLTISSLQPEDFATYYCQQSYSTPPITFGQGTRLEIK
Turning to B12, in experiment [1], the “100 nM Ag Bound (RU)” value came out at 17 RU; the affinity, expressed as Kd, was 35.4 nM; the koff stood at 0.000403 s⁻¹; the association rate constant (kon) was 11400 M⁻¹ s⁻¹. In experiment [1], the t½ was determined as 29 min. For the same molecule, in experiment [2], the binding result is “no binding (tested: 100 nM)”.
